Reference: patent publication US20140093973A1 (BOARD OF REGENTS OF THE UNIVERSITY OF OKLAHOMA, published 2014)
Ends that are not written are not given here.

Key:
[1] = biological target: T1, soluble HLA-A*3601 (human); assay: FP screen
T1 construct: Member of the panel of 53 single-specificity sHLA

[2] = biological target: T2, soluble HLA-A*2601 (human); assay: FP screen
T2 construct: Member of the panel of 53 single-specificity sHLA

[3] = biological target: T3, soluble HLA-A*6601 (human); assay: FP screen
T3 construct: Member of the panel of 53 single-specificity sHLA

[4] = biological target: T4, soluble HLA-B*2705 (sHLA-B*2705) (human); assay: FP screen
T4 construct: Recombinant soluble class I with endogenous peptides, made as m1; negative control

[5] = biological target: T5, soluble HLA-B*1512 (human); assay: FP screen
T5 construct: Member of the panel of 53 single-specificity sHLA

[6] = biological target: T6, soluble HLA-A*4301 (sHLA-A*4301) (human); assay: FP screen
T6 construct: Recombinant soluble class I with endogenous peptides, made as m1

[7] = biological target: T7, soluble HLA-A*3402 (human); assay: FP screen
T7 construct: Member of the panel of 53 single-specificity sHLA

[8] = biological target: T8, soluble HLA-A*2902 (human); assay: FP screen
T8 construct: Member of the panel of 53 single-specificity sHLA

[9] = biological target: T9, soluble HLA-A*0301 (human); assay: FP screen
T9 construct: Member of the panel of 53 single-specificity sHLA

[10] = biological target: T10, soluble HLA-B*4402 (human); assay: FP screen
T10 construct: Member of the panel of 53 single-specificity sHLA

[11] = biological target: T11, soluble HLA-B*1302 (human); assay: FP screen
T11 construct: Member of the panel of 53 single-specificity sHLA

[12] = biological target: T12, soluble HLA-A*2301 (human); assay: FP screen
T12 construct: Member of the panel of 53 single-specificity sHLA

[13] = biological target: T13, soluble HLA-A*3002 (human); assay: FP screen
T13 construct: Member of the panel of 53 single-specificity sHLA

[14] = biological target: soluble HLA-A*0201 (sHLA-A*0201) (human); assay: FP screen
[15] = biological target: T14, soluble HLA-A*2402 (human); assay: FP screen
T14 construct: Member of the panel of 53 single-specificity sHLA

[16] = biological target: T15, soluble HLA-A*6901 (sHLA-A*6901) (human); assay: FP screen
T15 construct: Recombinant soluble class I with endogenous peptides, made as m1

[17] = biological target: T16, soluble HLA-A*6801 (sHLA-A*6801) (human); assay: FP screen
T16 construct: Recombinant soluble class I with endogenous peptides, made as m1

[18] = biological target: T17, soluble HLA-B*4501 (human); assay: FP screen
T17 construct: Member of the panel of 53 single-specificity sHLA

[19] = biological target: T18, soluble HLA-A*1102 (sHLA-A*1102) (human, UniProt P04439 25-308; P61769 21-119); assay: FP screen
T18 construct: Recombinant soluble class I with endogenous peptides, made as m1

[20] = biological target: T19, soluble HLA-B*1801 (human); assay: FP screen of 53 sHLA with FITC-peptide
T19 construct: Member of the panel of 53 single-specificity sHLA

[21] = biological target: T20, soluble HLA-B*1501 (human); assay: FP screen of 53 sHLA with FITC-peptide
T20 construct: Member of the panel of 53 single-specificity sHLA

[22] = biological target: T21, soluble HLA-B*4001 (human); assay: FP screen of 53 sHLA
T21 construct: Member of the panel of 53 single-specificity sHLA

[23] = biological target: T22, soluble HLA-B*4002 (human); assay: FP screen of 53 sHLA with FITC-peptide
T22 construct: Member of the panel of 53 single-specificity sHLA

[24] = biological target: T21, soluble HLA-B*4001; assay: FP screen of 53 sHLA with FITC-peptide
[25] = biological target: T10, soluble HLA-B*4402; assay: FP screen of 53 sHLA

EEKLIVKQY (also: FITC-labeled, position not given here) [EEKLIVKQY, FITC-labeled B44-like peptide]: no binding (tested: 100 ug/ml sHLA) [1]; no binding (tested: 100 ug/ml sHLA) [2]; no binding (tested: 100 ug/ml sHLA) [3]. EEKLIVKQY (also: FITC-labeled, position not given here) [EEKLIVKQY, FITC-labeled B44-like peptide]: no binding (tested: 100 ug/ml sHLA) [4]; no binding (tested: 100 ug/ml sHLA) [5]; no binding (tested: 100 ug/ml sHLA) [6]. EEKLIVKQY (also: FITC-labeled, position not given here) [EEKLIVKQY, FITC-labeled B44-like peptide]: no binding (tested: 100 ug/ml sHLA) [7]; no binding (tested: 100 ug/ml sHLA) [8]; no binding (tested: 100 ug/ml sHLA) [9]. EEKLIVKQY (also: FITC-labeled, position not given here) [EEKLIVKQY, FITC-labeled B44-like peptide]: no binding (tested: 100 ug/ml sHLA) [10]; no binding (tested: 100 ug/ml sHLA) [11]; no binding (tested: 100 ug/ml sHLA) [12]. EEKLIVKQY (also: FITC-labeled, position not given here) [EEKLIVKQY, FITC-labeled B44-like peptide]: no binding (tested: 100 ug/ml sHLA) [13]; no binding (tested: 100 ug/ml sHLA) [14]; no binding (tested: 100 ug/ml sHLA) [15]. EEKLIVKQY (also: FITC-labeled, position not given here) [EEKLIVKQY, FITC-labeled B44-like peptide]: no binding (tested: 100 ug/ml sHLA) [16]; no binding (tested: 100 ug/ml sHLA) [17]; no binding (tested: 100 ug/ml sHLA) [18]. EEKLIVKQY (also: FITC-labeled, position not given here) [EEKLIVKQY, FITC-labeled B44-like peptide]: no binding (tested: 100 ug/ml sHLA) [19]; binds [20]; binds [21]. EEKLIVKQY (also: FITC-labeled, position not given here) [EEKLIVKQY, FITC-labeled B44-like peptide]: binds [22].

AELLAAKF (also: FITC-labeled, position not given here) [AELLAAKF, FITC-labeled B44-like peptide]: binds [23]; binds [20]; binds [24]. AELLAAKF (also: FITC-labeled, position not given here) [AELLAAKF, FITC-labeled B44-like peptide]: no binding (tested: 2 nM peptide, 100 ug/ml activated sHLA) [25].
